Measured values reported in patent publication US20150079112A1 (SAMSUNG ELECTRONICS, published 2015).

How the values were obtained:
Assay in all cases: ELISA, coated antibody 1000 nM, 250 ng FLAG-tagged mutant Ang2, anti-FLAG-HRP, OD450
[1] = target: T1, mutant Ang2 protein, P419 substituted with alanine, FLAG-tagged at its N-terminal (human, UniProt O15123 19-496, limits assumed)
T1 sequence: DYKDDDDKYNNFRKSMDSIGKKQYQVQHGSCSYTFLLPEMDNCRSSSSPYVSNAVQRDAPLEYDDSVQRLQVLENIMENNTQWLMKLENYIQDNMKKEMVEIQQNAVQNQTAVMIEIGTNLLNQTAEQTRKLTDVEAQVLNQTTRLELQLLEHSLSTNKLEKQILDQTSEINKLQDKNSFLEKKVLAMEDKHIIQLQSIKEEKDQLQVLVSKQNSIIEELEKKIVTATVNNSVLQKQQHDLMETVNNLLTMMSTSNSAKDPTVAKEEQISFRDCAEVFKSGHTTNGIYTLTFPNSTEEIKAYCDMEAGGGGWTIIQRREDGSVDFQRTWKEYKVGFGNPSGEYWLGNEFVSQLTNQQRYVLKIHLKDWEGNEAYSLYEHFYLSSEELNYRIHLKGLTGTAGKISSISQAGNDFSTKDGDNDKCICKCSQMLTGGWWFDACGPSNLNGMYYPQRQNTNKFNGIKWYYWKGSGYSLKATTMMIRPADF
Description: (§1) Each well of a 96-well MaxiSorp™ flat-bottom plate (Nunc) was coated with 50 ul (microliter) of 1000 nM antibody. Then, the plate was washed five times with 0.05% (v/v) Tween-20-containing PBS (PBST) and blocked with 1% (v/v) BSA-containing PBS at a room temperature for 2 hours. 250 ng of each mutant Ang2 protein obtained by substituting S417, Q418, P419, N421, I434, D448, A449, P452, Y460, N467, K468, or F469 residue of Ang2 protein tagged with a FLAG sequence ([…], Sigma) at its N-terminal with alanine was added to each well of the plate, which was then allowed to react at a room temperature for 2 hours.
(§2) The plate was washed five times with 0.05% (v/v) Tween-20 containing PBS, reacted with an anti-FLAG antibody (SIGMA) conjugated with HRP which was diluted in 1% (v/v) BSA-containing PBS at a ratio of 1:5,000 (v/v) at a room temperature for 1 hour, and washed five times with 0.1% (v/v) Tween-20-containing PBS.
(§3) Finally, 50 ul of TMB substrates (Cell signaling) was added to each well of the plate to induce color development at a room temperature for 3 min. and the reaction was ceased by the addition of 50 ul of Stop solution (Cell signaling) and then, OD450 values were measured on a plate reader (Molecular Devices). By comparing binding affinities with mutated Ang2 to those of unmutated Ang2, each epitope of Ang2 antibodies was identified. The thus obtained measurement results of the binding affinities (%) with mutant Ang2 against the binding affinity with the native Ang2 are shown in the following Table 8.

[2] = target: T2, mutant Ang2 protein, N421 substituted with alanine, FLAG-tagged at its N-terminal (human, UniProt O15123 19-496, limits assumed)
T2 sequence: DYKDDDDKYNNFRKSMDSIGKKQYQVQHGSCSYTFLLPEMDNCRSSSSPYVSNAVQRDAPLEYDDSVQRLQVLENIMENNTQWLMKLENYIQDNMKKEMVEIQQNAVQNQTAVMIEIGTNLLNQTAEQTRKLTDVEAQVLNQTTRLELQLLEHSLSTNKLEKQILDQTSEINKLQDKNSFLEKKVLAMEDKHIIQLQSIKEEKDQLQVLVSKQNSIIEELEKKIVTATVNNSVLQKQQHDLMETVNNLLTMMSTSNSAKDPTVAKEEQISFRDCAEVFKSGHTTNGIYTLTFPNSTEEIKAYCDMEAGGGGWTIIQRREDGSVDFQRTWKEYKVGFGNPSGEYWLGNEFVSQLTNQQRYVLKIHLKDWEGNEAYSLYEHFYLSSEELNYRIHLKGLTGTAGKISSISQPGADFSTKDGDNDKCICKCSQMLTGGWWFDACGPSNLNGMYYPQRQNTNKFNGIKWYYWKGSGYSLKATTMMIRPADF
Description: as §1, §2, §3

[3] = target: T3, mutant Ang2 protein, I434 substituted with alanine, FLAG-tagged at its N-terminal (human, UniProt O15123 19-496, limits assumed)
T3 sequence: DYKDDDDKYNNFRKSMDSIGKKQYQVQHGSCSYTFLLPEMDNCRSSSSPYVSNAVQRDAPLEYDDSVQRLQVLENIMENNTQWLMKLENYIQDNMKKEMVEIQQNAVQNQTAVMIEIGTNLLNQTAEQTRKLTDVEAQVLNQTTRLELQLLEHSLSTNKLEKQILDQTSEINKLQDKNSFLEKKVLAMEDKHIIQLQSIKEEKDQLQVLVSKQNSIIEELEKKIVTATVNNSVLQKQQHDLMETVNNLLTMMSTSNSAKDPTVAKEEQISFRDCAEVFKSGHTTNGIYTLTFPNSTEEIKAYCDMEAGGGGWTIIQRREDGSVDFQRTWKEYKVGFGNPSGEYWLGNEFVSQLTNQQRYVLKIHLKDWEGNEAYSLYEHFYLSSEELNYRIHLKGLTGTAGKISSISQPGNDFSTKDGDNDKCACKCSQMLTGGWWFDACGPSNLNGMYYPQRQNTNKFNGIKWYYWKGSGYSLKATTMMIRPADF
Description: as §1, §2, §3

[4] = target: T4, mutant Ang2 protein, P452 substituted with alanine, FLAG-tagged at its N-terminal (human, UniProt O15123 19-496, limits assumed)
T4 sequence: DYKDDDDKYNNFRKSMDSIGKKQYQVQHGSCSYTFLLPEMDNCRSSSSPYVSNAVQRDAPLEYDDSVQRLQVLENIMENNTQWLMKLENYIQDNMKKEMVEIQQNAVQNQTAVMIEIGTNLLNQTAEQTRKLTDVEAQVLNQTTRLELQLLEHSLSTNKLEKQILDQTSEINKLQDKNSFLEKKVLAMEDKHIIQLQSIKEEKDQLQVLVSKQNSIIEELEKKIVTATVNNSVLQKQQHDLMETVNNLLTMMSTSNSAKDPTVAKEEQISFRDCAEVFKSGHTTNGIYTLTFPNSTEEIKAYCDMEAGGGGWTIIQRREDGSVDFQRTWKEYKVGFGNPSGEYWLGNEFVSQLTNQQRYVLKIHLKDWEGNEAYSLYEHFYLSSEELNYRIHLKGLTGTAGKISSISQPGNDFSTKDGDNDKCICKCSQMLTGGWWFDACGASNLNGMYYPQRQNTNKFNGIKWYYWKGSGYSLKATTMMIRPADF
Description: as §1, §2, §3

B1: SAIT-ANG2-AB-m10D6 (antibody, V domains shown)
VH: DVQLQESGPGLVKPSQSLSLTCTVTGYSITSDYAWNWIRQFPGNKLEWMGYINYSGNTDYNPSLKSRSSITRDTSKNQFFLQLNSVTTGDTATYYCARGNFEGAMDYWGQGTSVTVSS
VL: SIVMTQTPKFLLVSAGDRVTITCKASQSVSNDVAWYQQKPGQSPKLLIYYASNRYPGVPDRFTGSGYGTDFTFTISTVQAEDLAVYFCQQDYSSPWTFGGGTKLEIK
notes: also called antibody 10D6; anti-Ang2 antibody (10D6)
[1]
  binding affinity (%) with mutant Ang2 against the binding affinity with the native Ang2: 41.1%
[2]
  binding affinity (%) with mutant Ang2 against the binding affinity with the native Ang2: 109%
[3]
  binding affinity (%) with mutant Ang2 against the binding affinity with the native Ang2: 109%
[4]
  binding affinity (%) with mutant Ang2 against the binding affinity with the native Ang2: 102%
